Experimental data: article PMC9352930, “Structure-Guided Engineering of a Complement Component C3-Binding Nanobody Improves Specificity and Adds Cofactor Activity” (Frontiers in Immunology, 2022)
One block for each binder: values may come before it.

What was measured:
Details in all cases: both partners purified
[1] = target: T1, C3b (proteolytic fragment of complement component C3) (human, UniProt P01024); assay: BLI; single concentration: nanobody variant held on anti-penta his (His1K) biosensors, transferred into 50 nM C3 or C3b for 180 s; 20 mM HEPES pH 7.5, 150 mM NaCl, 30°C
T1 construct: complement component C3, human, beta chain; complement component C3, human, alpha' chain (alpha chain after release of C3a); also called human C3b; source: generated from native plasma C3 by trypsin cleavage, purified

[2] = target: T1, C3b (proteolytic fragment of complement …); assay: SPR; biotinylated C-terminally avi-tagged nanobody on streptavidin (CM500M chip); native C3, C3b and C3MA injected at 0.4-200 nM; 20 mM HEPES pH 7.5, 150 mM NaCl, 0.05% Tween 20, 25°C; 1:1 model; KD for native C3 called apparent
[3] = target: T1, C3b (proteolytic fragment of complement …); assay: BLI; kinetics: EWE, EWEµH or EWEnH held on anti-penta his (His1K) biosensors, dilution series of C3b or iC3b; 20 mM HEPES pH 7.5, 150 mM NaCl, 30°C; 1:1 model
[4] = target: T2, iC3b (human); assay: as above
T2 construct: complement component C3, human, beta chain; it says only that FI degrades C3b to iC3b; copies: + +
T2 sequence (chain, as listed by the source, chain 1 of 3): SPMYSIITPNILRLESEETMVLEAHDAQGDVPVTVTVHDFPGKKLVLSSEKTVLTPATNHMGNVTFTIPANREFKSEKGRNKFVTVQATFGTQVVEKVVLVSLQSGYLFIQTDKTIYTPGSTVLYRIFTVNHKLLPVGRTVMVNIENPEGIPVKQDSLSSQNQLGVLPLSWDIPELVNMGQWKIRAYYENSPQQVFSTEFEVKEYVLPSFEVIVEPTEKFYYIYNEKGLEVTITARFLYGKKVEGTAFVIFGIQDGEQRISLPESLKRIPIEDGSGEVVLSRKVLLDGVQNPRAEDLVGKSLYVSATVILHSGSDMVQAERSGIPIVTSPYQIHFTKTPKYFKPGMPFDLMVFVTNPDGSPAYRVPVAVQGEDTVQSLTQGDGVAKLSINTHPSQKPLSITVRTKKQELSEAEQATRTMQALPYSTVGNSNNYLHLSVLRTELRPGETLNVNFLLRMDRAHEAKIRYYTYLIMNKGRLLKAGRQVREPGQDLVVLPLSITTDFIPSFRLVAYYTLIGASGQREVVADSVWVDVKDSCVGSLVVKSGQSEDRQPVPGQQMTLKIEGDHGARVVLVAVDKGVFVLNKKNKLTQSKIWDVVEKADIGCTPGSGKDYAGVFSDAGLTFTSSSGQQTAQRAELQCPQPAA
T2 sequence (chain, as listed by the source, chain 2 of 3): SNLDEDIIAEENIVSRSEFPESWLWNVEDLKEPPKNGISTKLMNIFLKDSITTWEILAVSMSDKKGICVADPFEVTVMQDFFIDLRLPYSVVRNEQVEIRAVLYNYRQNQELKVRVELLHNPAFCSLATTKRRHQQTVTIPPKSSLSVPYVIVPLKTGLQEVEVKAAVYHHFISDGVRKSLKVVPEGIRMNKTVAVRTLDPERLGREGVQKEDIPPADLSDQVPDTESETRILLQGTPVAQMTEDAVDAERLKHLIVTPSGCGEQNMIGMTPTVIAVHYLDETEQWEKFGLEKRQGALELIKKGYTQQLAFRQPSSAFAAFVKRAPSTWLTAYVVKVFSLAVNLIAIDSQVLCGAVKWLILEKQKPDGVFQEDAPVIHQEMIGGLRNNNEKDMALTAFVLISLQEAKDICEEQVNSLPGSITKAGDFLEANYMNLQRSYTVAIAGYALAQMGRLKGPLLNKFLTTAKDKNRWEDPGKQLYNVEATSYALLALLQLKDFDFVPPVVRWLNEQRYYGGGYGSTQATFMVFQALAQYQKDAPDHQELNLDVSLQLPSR
T2 sequence (chain, as listed by the source, chain 3 of 3): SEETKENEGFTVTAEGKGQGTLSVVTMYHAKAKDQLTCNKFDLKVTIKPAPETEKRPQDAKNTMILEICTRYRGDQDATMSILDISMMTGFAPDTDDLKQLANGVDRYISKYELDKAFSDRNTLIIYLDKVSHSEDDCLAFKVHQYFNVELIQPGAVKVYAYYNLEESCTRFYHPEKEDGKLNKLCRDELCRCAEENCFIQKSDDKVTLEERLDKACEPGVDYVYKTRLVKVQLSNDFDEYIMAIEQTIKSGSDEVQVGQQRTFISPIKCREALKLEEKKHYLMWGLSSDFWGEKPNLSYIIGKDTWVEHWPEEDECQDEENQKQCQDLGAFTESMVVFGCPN

[5] = target: T1, C3b (proteolytic fragment of complement …); assay: SEC; C3 or C3b mixed with a two-fold molar excess of nanobody, 5 min on ice; Superdex 200 increase, 20 mM HEPES pH 7.5, 150 mM NaCl; peak fractions on SDS-PAGE

- binding result [1]: binds
B3: hC3Nb1 nanobody, mammalian expressed (VHH)
VHH: QVQLVETGGGLVQAGGSLRLSCAASGSIFSLNAMGWFRQAPGKEREFVATINRSGGRTYYADSVKGRFTISRDNGKNMVYLQMHSLKPEDTAIYYCAAGTGWSPQTDNEYNYWGQGTQVTVSS
notes: hC3Nb1 nanobody without the N-terminal methionine; in the PDB entries 6EHG and 6RU5; pcDNA 3.1 vector; The calculated mass differs from that of the bacterial construct by more than a methionine, so tag or ends may differ; source: HEK293, transiently transfected, purified from conditioned media (HisTrap excel, ion exchange, SEC)

- binding result [5]: binds
B5: hC3Nb1 nanobody, bacterially expressed (VHH)
VHH: QVQLVETGGGLVQAGGSLRLSCAASGSIFSLNAMGWFRQAPGKEREFVATINRSGGRTYYADSVKGRFTISRDNGKNMVYLQMHSLKPEDTAIYYCAAGTGWSPQTDNEYNYWGQGTQVTVSS
notes: N-terminal methionine, retained according to mass spectrometry; hC3Nb1 nanobody; in the PDB entries of its complexes with C3b (6EHG) and C3 (6RU5); pET-22b(+) plasmid; Held on anti-penta-His sensors in BLI; also called parental hC3Nb1; hC3bNb1; source: LOBSTR cells (bacteria), purified (HisTrap, Source 15S, SEC)

- binding result [1]: binds
B6: hC3Nb1 Q1N (VHH)
VHH: NVQLVETGGGLVQAGGSLRLSCAASGSIFSLNAMGWFRQAPGKEREFVATINRSGGRTYYADSVKGRFTISRDNGKNMVYLQMHSLKPEDTAIYYCAAGTGWSPQTDNEYNYWGQGTQVTVSS
notes: hC3Nb1 nanobody with the N-terminal glutamine mutated to asparagine; parent as the nanobody piece of m6; The printed calculated mass (14182.7) fits a protein without the N-terminal methionine (my reckoning against 14327.9 for m6); source: expressed in bacteria, purified

The next lines start with the binder.

B1: hC3Nb1 ΔQ1 (VHH)
VHH: VQLVETGGGLVQAGGSLRLSCAASGSIFSLNAMGWFRQAPGKEREFVATINRSGGRTYYADSVKGRFTISRDNGKNMVYLQMHSLKPEDTAIYYCAAGTGWSPQTDNEYNYWGQGTQVTVSS
notes: hC3Nb1 nanobody with the N-terminal glutamine deleted; parent as the nanobody piece of m6; The printed calculated mass (14068.6) fits a protein without the N-terminal methionine (my reckoning against 14327.9 for m6); source: expressed in bacteria, purified
- binding result [1]: binds

B2: avi-tagged, biotinylated EWE nanobody (VHH)
VHH: QVQLVETGGGLVQAGGSLRLSCAASGSIFSINAMGWFRQAPGKEREFVATINRSGGRTYYADSVKGRFTISRDNGKNMVYLQMHSLKPEDTAIYYCAAGTGWSPQTDNEYNYWGQGTQVTVSS
notes: hC3Nb1 nanobody; as the nanobody piece of m6; also called avi-tagged version of EWE; source: purified similarly to EWE (bacteria; HisTrap, Source 15S, SEC) and biotinylated; not shown: Avi tag, C-terminal, kept
- Kd [2]: 2.2 nM

B4: EWE-hC3Nb1 nanobody, bacterially expressed (VHH)
VHH: QVQLVETGGGLVQAGGSLRLSCAASGSIFSINAMGWFRQAPGKEREFVATINRSGGRTYYADSVKGRFTISRDNGKNMVYLQMHSLKPEDTAIYYCAAGTGWSPQTDNEYNYWGQGTQVTVSS
notes: hC3Nb1 nanobody, beginning with its N-terminal glutamine (Gln4 of EWE); as the nanobody piece of m6; also called EWE nanobody; source: LOBSTR cells (bacteria), purified (HisTrap, Source 15S, SEC); not shown: 6xHis, C-terminal, kept
- Kd [3]: 3 nM
- Kd [4]: 3.6 nM
